Reference: the supplement of paper PMC10065799, “High-throughput profiling of sequence recognition by tyrosine kinases and SH2 domains using bacterial peptide display” (eLife, 2023)

Key:
EPHB1 = EPHB1 (UniProt P54762); experiment: phosphorylation enrichment, bacterial display (enrichment ratio); higher = better substrate or ligand; peptides without Tyr show the background
Hck = Hck (UniProt P08631); experiment: as above
Fer (mouse) = experiment: as above
MERTK = MERTK (UniProt Q12866); experiment: as above
Sequence of MERTK (Q12866 whole entry, looked up): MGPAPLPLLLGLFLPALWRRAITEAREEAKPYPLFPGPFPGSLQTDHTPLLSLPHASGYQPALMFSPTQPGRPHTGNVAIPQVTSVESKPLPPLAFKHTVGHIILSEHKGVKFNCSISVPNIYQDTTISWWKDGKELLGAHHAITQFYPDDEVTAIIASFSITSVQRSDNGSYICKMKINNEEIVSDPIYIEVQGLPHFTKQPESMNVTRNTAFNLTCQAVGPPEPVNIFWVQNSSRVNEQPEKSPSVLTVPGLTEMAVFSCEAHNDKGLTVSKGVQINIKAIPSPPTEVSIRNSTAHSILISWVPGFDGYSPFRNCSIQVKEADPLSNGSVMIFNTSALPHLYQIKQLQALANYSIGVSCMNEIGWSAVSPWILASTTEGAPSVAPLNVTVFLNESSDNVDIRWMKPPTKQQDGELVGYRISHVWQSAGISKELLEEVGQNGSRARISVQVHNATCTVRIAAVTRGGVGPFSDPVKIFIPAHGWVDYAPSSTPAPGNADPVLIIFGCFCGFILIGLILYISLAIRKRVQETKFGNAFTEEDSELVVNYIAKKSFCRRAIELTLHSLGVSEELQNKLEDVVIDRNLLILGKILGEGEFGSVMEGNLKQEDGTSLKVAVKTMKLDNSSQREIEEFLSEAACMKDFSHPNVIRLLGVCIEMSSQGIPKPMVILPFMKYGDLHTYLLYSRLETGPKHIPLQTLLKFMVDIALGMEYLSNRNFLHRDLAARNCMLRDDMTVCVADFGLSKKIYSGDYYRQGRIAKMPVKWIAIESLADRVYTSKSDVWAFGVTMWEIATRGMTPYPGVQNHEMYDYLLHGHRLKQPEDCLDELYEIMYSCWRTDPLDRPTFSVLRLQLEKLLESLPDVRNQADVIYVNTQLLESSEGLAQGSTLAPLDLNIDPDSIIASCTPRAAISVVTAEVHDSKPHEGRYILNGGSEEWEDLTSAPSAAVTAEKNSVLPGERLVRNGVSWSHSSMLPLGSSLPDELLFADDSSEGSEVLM

Jak2 = Jak2 (UniProt O60674); experiment: as above
c-Src = experiment: as above
FGFR3 = FGFR3 (UniProt P22607); experiment: as above
Sequence of FGFR3 (P22607 whole entry, looked up): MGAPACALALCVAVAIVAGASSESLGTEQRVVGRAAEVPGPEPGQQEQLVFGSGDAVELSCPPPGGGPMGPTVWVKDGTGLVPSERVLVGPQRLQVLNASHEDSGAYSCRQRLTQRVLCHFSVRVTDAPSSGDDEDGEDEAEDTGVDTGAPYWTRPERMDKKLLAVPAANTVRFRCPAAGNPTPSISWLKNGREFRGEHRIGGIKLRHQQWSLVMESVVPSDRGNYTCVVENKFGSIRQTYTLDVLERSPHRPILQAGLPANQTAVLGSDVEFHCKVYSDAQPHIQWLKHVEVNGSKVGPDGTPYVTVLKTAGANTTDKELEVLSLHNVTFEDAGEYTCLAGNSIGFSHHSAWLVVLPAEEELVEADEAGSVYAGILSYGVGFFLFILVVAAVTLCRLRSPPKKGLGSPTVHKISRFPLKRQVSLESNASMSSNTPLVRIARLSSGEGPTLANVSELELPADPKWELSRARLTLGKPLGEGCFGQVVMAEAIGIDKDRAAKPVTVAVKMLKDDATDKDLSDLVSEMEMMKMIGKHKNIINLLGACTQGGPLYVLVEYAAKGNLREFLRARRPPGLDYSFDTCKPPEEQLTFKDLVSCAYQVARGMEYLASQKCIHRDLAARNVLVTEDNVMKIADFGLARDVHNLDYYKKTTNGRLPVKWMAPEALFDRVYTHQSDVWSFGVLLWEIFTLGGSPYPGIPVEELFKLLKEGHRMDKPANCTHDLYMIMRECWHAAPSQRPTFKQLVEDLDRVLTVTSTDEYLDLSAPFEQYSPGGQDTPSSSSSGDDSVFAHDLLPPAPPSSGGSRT

AncSZ = experiment: as above
Fyn = Fyn (UniProt P06241); experiment: as above
c-Abl (mouse) = experiment: as above
Fes = Fes (UniProt P07332); experiment: as above
Sequence of Fes (P07332 whole entry, looked up): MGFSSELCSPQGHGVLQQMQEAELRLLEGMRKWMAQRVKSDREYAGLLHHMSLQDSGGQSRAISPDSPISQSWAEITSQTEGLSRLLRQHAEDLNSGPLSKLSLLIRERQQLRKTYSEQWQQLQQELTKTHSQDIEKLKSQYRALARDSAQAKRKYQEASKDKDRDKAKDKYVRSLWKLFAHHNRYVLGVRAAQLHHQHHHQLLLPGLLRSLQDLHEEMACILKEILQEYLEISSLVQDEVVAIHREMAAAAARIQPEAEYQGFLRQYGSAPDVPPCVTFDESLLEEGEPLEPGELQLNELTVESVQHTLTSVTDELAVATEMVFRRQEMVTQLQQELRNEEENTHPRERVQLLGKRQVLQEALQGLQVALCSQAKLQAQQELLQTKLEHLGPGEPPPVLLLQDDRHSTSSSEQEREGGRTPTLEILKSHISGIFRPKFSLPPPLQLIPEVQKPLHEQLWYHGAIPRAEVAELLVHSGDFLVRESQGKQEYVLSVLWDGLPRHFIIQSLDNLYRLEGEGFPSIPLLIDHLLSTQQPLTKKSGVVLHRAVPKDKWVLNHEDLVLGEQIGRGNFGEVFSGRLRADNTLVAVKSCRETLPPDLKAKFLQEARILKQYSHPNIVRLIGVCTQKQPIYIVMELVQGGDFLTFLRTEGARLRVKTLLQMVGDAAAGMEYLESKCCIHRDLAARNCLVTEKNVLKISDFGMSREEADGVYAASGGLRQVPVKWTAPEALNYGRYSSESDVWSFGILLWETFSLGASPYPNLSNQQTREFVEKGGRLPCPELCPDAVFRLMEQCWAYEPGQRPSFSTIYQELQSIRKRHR

EPHB2 = EPHB2 (UniProt P29323); experiment: as above
Sequence of EPHB2 (P29323 whole entry, looked up): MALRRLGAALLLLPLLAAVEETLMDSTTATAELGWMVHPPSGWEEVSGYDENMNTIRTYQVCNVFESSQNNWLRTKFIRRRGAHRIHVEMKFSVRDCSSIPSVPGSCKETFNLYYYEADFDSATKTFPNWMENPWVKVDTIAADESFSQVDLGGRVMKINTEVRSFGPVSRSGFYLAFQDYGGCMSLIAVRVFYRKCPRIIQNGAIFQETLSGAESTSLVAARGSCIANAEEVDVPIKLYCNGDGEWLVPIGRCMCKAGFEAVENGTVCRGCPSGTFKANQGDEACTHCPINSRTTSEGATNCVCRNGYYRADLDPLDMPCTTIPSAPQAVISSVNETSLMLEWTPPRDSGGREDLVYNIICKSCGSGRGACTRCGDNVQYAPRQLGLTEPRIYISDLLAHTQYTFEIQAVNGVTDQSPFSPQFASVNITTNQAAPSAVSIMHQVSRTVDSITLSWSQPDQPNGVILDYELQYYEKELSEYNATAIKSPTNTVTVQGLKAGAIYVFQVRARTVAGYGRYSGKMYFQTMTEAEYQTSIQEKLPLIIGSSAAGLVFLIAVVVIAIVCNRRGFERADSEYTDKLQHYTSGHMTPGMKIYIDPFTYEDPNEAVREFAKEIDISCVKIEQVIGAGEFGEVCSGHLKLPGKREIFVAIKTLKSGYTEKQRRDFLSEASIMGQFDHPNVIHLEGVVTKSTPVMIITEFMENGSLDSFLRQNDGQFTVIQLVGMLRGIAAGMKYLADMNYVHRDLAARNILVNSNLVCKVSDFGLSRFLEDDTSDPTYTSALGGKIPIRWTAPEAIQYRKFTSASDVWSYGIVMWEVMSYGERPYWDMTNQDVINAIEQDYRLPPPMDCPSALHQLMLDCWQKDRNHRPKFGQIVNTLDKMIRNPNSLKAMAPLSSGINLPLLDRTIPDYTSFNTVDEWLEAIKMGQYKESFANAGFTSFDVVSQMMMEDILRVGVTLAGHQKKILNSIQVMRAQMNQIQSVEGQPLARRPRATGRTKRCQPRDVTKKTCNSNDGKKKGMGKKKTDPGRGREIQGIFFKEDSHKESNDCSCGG

FGFR1 = FGFR1 (UniProt P11362); experiment: as above
Sequence of FGFR1 (P11362 whole entry, looked up): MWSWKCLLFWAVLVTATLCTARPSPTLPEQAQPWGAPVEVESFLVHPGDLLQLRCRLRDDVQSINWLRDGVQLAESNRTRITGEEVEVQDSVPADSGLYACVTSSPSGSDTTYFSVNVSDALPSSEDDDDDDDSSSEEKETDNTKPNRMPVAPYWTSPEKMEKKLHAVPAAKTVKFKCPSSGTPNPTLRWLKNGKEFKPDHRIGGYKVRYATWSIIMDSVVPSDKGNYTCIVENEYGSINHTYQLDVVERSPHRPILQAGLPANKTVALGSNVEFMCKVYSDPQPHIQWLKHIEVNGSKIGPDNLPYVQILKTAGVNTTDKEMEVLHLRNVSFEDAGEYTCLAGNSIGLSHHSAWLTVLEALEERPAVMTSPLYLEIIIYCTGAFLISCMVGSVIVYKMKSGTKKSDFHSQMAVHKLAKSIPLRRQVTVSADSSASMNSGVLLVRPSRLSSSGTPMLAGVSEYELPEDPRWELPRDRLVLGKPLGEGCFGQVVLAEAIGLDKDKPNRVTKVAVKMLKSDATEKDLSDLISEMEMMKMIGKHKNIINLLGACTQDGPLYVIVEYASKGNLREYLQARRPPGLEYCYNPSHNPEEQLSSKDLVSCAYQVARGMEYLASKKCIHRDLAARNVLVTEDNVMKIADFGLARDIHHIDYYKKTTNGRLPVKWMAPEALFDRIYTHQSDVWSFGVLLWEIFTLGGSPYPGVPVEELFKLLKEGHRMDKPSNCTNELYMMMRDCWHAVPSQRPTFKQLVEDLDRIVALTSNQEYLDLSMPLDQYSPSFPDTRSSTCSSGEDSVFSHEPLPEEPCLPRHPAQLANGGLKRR

c-Src SH2 = experiment: SH2 binding enrichment of the phosphorylated peptide, bacterial display (enrichment ratio); higher = better substrate or ligand; peptides without Tyr show the background
Grb2 SH2 = Grb2 SH2 (UniProt P62993); experiment: as above
SHP2-C SH2 = experiment: as above
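Wherever SH2 binding enrichment of the phosphorylated peptide, bacterial display is given: peptide library displayed on the E. coli surface as eCPX fusions, selected cells deep-sequenced, score is each peptide's frequency after selection divided by its frequency in the input.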
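Wherever phosphorylation enrichment, bacterial display is given: 11-residue human phosphosite peptides and single-mutation variants displayed on the E. coli surface, counted by deep sequencing, each peptide's frequency after selection divided by its frequency in the unselected input library; frequency after pTyr selection over input frequency; kinase dosed for 20-30% of maximal phosphorylation in three min.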

Sequence of Hck (P08631 whole entry, looked up): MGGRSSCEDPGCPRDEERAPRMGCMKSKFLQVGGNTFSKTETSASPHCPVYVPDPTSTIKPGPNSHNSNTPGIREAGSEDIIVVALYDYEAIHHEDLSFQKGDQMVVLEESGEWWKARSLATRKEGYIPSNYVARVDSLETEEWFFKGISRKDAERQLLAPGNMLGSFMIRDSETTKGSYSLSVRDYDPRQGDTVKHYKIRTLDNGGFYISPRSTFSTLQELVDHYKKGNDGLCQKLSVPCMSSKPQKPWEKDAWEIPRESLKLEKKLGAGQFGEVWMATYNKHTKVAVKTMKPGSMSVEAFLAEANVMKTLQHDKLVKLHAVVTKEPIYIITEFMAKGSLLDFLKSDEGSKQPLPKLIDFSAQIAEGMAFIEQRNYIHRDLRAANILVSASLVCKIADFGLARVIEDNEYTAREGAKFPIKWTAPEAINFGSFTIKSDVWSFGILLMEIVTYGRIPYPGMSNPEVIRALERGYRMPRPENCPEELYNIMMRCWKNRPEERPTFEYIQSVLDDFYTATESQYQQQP

Sequence | SH2 binding enrichment (c-Src SH2) | SH2 binding enrichment (Grb2 SH2) | SH2 binding enrichment (SHP2-C SH2) | phosphorylation enrichment (EPHB1) | phosphorylation enrichment (Hck) | phosphorylation enrichment (Fer (mouse)) | phosphorylation enrichment (MERTK) | phosphorylation enrichment (Jak2) | phosphorylation enrichment (c-Src) | phosphorylation enrichment (FGFR3) | phosphorylation enrichment (AncSZ) | phosphorylation enrichment (Fyn) | phosphorylation enrichment (c-Abl (mouse)) | phosphorylation enrichment (Fes) | phosphorylation enrichment (EPHB2) | phosphorylation enrichment (FGFR1)
ALAHKYDGGGG [HBB_Y146_H147D] | 0.401 | 0.765 | 0.357 | 0.464 | 0.473 | 0.635 | 0.54 | 0.825 | 0.478 | 0.494 | 0.985 | 0.367 | 0.663 | 0.7 | 0.655 | 0.751
RPAPQYPHQVP [ADAM12_Y895] | 0.647 | 1.06 | 0.687 | 0.572 | 0.582 | 0.685 | 0.718 | 1.36 | 0.819 | 1.03 | 1.3 | 0.715 | 1.01 | 1.02 | 0.463 | 0.608
HRNNNYEPNLF [BRCA2_Y57_K53R] | 0.668 | 0.674 | 0.651 | 1.07 | 0.465 | 0.552 | 0.617 | 1.06 | 0.419 | 0.662 | 0.684 | 0.583 | 0.509 | 0.75 | 0.858 | 0.54
LGSVVYAHSKE [KCNQ2_Y226] | 0.467 | 0.809 | 0.754 | 0.473 | 0.403 | 0.416 | 0.424 | 0.559 | 0.413 | 0.419 | 0.527 | 0.407 | 0.449 | 0.596 | 0.437 | 0.445
KPGLKYVTFGN [GALNTL5_Y404_YF] | 1.21 | 1.33 | 1.7 | 0.351 | 0.498 | 0.366 | 0.449 | 0.605 | 0.488 | 0.514 | 0.671 | 0.409 | 0.551 | 0.768 | 0.539 | 0.412
GPGLVYRVANK [FLNB_Y1833_G1834R] | 0.499 | 0.999 | 0.722 | 0.471 | 0.498 | 0.445 | 0.399 | 0.688 | 0.541 | 0.597 | 0.785 | 0.485 | 0.716 | 0.793 | 0.436 | 0.515
KLADVYQAELR [GFAP_Y116] | 0.486 | 0.844 | 0.561 | 0.533 | 0.47 | 0.445 | 0.429 | 0.549 | 0.634 | 0.667 | 0.789 | 0.492 | 0.549 | 0.792 | 0.459 | 0.472
CDKEFYSVHNK [MET_Y1235_Y1230C_YF] | 0.727 | 1 | 0.902 | 0.461 | 0.46 | 0.405 | 0.423 | 0.68 | 0.491 | 0.606 | 0.732 | 0.504 | 0.55 | 0.827 | 0.586 | 0.441
EKLQKYYRKNP [EHHADH_Y682_Q685K] | 0.603 | 0.95 | 1.11 | 0.471 | 0.353 | 0.417 | 0.394 | 0.694 | 0.482 | 0.598 | 0.575 | 0.388 | 0.699 | 0.753 | 0.484 | 0.45
GSERDYTFDEL [EIF2S2_Y174_E177D_YF] | 0.508 | 0.919 | 0.681 | 0.577 | 0.528 | 0.582 | 0.515 | 1.21 | 0.639 | 0.871 | 1.25 | 0.474 | 0.837 | 1.18 | 0.564 | 0.583
AIYEGYALPHA [ACTC1_Y171_P166A] | 2.48 | 0.792 | 0.726 | 20.8 | 13.7 | 22.6 | 13.8 | 0.789 | 11.3 | 0.773 | 1.77 | 15.9 | 18.1 | 1.37 | 30.1 | 0.761
SDQRRYSLIDP [CLIP2_Y972_R977P] | 15.9 | 0.889 | 3.82 | 0.56 | 0.466 | 0.545 | 1.3 | 0.587 | 0.383 | 0.64 | 0.683 | 0.574 | 0.488 | 0.719 | 0.567 | 0.533
IGLHAYGDQFR [IDH1_Y135_R132L_YF] | 0.419 | 0.703 | 0.449 | 0.413 | 0.473 | 0.51 | 0.4 | 0.519 | 0.39 | 0.594 | 0.687 | 0.502 | 0.51 | 0.799 | 0.491 | 0.423
KANEFYPVVII [ADAMTS18_Y765_L769I_YF] | 0.349 | 0.626 | 0.597 | 0.411 | 0.458 | 0.456 | 0.386 | 1.06 | 0.478 | 1.26 | 1.03 | 0.458 | 0.663 | 1.16 | 0.695 | 1.9
GGGCGYNRSSG [FUS_Y232_G230C] | 0.531 | 0.802 | 0.632 | 0.392 | 0.42 | 0.434 | 0.412 | 0.701 | 0.435 | 0.465 | 0.663 | 0.422 | 0.815 | 0.717 | 0.426 | 0.448

Second part, led by results:

SH2 binding enrichment (c-Src SH2) | SH2 binding enrichment (Grb2 SH2) | SH2 binding enrichment (SHP2-C SH2) | Sequence | phosphorylation enrichment (EPHB1) | phosphorylation enrichment (Hck) | phosphorylation enrichment (Fer (mouse)) | phosphorylation enrichment (MERTK) | phosphorylation enrichment (Jak2) | phosphorylation enrichment (c-Src) | phosphorylation enrichment (FGFR3) | phosphorylation enrichment (AncSZ) | phosphorylation enrichment (Fyn) | phosphorylation enrichment (c-Abl (mouse)) | phosphorylation enrichment (Fes) | phosphorylation enrichment (EPHB2) | phosphorylation enrichment (FGFR1)
0.726 | 0.897 | 0.903 | SILAVYSKDIY [PANK2_Y400_N404I] | 0.745 | 2.48 | 0.45 | 2.91 | 1.04 | 2.84 | 0.713 | 1.07 | 2.43 | 0.537 | 0.924 | 0.788 | 0.518
0.479 | 0.663 | 0.584 | QEVLEYFMKQM [PIK3CA_Y1038_A1035V] | 1.15 | 0.95 | 0.719 | 0.68 | 2.27 | 0.963 | 1.68 | 2.18 | 0.999 | 1.31 | 1.94 | 0.993 | 0.954
0.774 | 0.897 | 0.609 | SSTAMYSAAGR [PSMB1_Y8_P11A] | 0.35 | 0.755 | 0.442 | 0.511 | 0.458 | 0.424 | 0.342 | 0.451 | 0.403 | 0.444 | 0.455 | 0.364 | 0.512
0.499 | 0.887 | 0.851 | QSMEPYTKQQL [STAT3_Y640_V637M] | 0.454 | 0.696 | 0.546 | 0.579 | 0.736 | 0.401 | 0.692 | 0.851 | 0.462 | 0.445 | 1.02 | 0.66 | 0.51
0.535 | 0.833 | 0.548 | TSKLSYLDPRI [TOP1_Y723_N722S] | 0.607 | 0.446 | 0.619 | 0.539 | 0.939 | 0.479 | 0.592 | 0.639 | 0.435 | 0.567 | 0.679 | 0.427 | 0.611
0.413 | 0.791 | 0.734 | QAPPIYLDVLG [NTRK1_Y791_V790I] | 13.6 | 2.11 | 3.26 | 3.35 | 1.21 | 1.71 | 2.38 | 1.31 | 1.46 | 0.878 | 0.952 | 3.26 | 3.35
1.66 | 0.972 | 0.689 | SVVVPYESPEV [TP53_Y220_P222S] | 0.57 | 0.566 | 0.488 | 0.463 | 0.867 | 0.509 | 0.647 | 1.36 | 0.578 | 0.73 | 1.13 | 0.609 | 0.561
0.494 | 0.898 | 0.581 | AEFGLYAAMVR [VSX2_Y222_G223A_YF] | 2.79 | 4.34 | 1.4 | 2.69 | 1.54 | 2.17 | 0.888 | 1.29 | 2.44 | 1.09 | 1.24 | 2.14 | 0.614
0.476 | 1.05 | 0.901 | SDFSRYARTSI [TERT_Y949_S948R_YF] | 0.463 | 0.484 | 0.358 | 0.48 | 0.502 | 0.442 | 0.487 | 0.537 | 0.408 | 0.502 | 0.6 | 0.466 | 0.48
3.29 | 0.589 | 0.431 | SRDDYYETIAM [NPY1R_Y347_D346Y] | 2.19 | 1.18 | 4.75 | 0.467 | 0.808 | 0.656 | 6.01 | 1.33 | 0.798 | 0.634 | 1.01 | 1.53 | 8.35
5.53 | 0.854 | 0.632 | GIYSGYDDAWD [POLR1C_Y36_N32I] | 2.36 | 5.99 | 1.46 | 2.25 | 1.05 | 5.63 | 0.647 | 1.44 | 7.64 | 0.835 | 1.09 | 2.5 | 0.568
0.548 | 0.883 | 0.788 | KIEGIYARDET [RPL35A_Y34_V33I] | 0.536 | 1.12 | 0.491 | 0.413 | 0.663 | 1.09 | 0.619 | 0.887 | 1.07 | 0.493 | 0.919 | 0.497 | 0.585
0.364 | 0.635 | 0.578 | DFPIGYPSFLA [TBCK_Y153_YF] | 0.477 | 0.481 | 0.459 | 0.37 | 0.748 | 0.535 | 0.631 | 0.79 | 0.517 | 0.594 | 1.07 | 0.503 | 0.578
0.413 | 0.711 | 0.88 | DKGTLYIVEQI [PLBD1_Y375] | 0.579 | 0.413 | 0.463 | 0.355 | 1.03 | 0.383 | 0.703 | 0.985 | 0.492 | 0.737 | 1.09 | 0.525 | 0.423
